Data published in patent US9840693B2, “Polypeptide hydrogels and uses related thereto” (Emory University, priority 2014, dated 2017).
“Also recorded” adds a separate entry of the source.

Legend:
[1] = Self-assembly of peptides into hydrogel at physiologic pH and osmolarity; assay type: physicochemical; conditions: for self-assembly into a hydrogel when mixed with peptide hydrogel R: mixed with R at a 1:10 ratio; for self-assemble at physiologic pH and osmolarity: peptide alone; for Self-Assembly: peptide alone at 1 % w/v
From the text: JAG-1 (CDDYYYGFGCNKFCRPR)(SEQ ID NO: 1) can be incorporated into the self-assembling peptides to generate bioactive scaffolds with the potential to regulate Notch signaling in a ligand density dependent manner. The self-assembling sequence RADA (or R) (RARADADARARADADA)(SEQ ID NO: 2) with a 7 glycine linker following the terminal alanine is followed by the active sequence of the Notch ligand Jagged-1 (JAG-1) to create the fusion peptide (RJ). As a control, the JAG-1 portion may be replaced with the scrambled sequence (RCGPDCFDNYGRYKYCF)(SEQ ID NO:4) (RS) with no known cell surface binding site can be used as a control to check for the specificity of JAG 1 in activating Notch-1 signaling. […] These peptide scaffolds self-assemble at physiological pH and osmolarity (in 295 mM sucrose solution) into nanofiber hydrogels. After synthesis, the peptides can be purified by high pressure liquid chromatography on reverse-phase columns. Purity can be assessed by HPLC and the presence of a correct composition by amino acid analysis.
The self-assembling peptide (R) and the peptides with Jag-1 (RJ) or scrambled (RS) attached are weighed out to create hydrogels of 1-3% w/v, i.e., hydrogels with varying % concentration from 1 to 3% w/v peptide wherein R is combined with RJ or RS in a ratio of 1:10.
A sucrose solution (295 mM) is added to the peptides and sonicated. The RJ or RS peptide solutions are mixed with the R solution at 1:10 and allowed to form the hydrogel. The time required to form the hydrogel depends on the concentration of the gel. In certain embodiments, the disclosure relates to the synthesis of self assembling peptides which contain the active ligand JAG-1 attached to it. This enables easy dose manipulation of JAG-1 to achieve Notch-1 activation.

[2] = system: Cardiac progenitor cells (CPCs); test: qPCR gene expression of CPCs cultured in hydrogels; assay type: cell-based, rat; conditions: 48 h
Experimental: (§1) Cardiac progenitor cells (CPCs) were isolated from 2 month old male Sprague Dawley rats by digesting the heart with Collagenase followed by magnetic sorting for cKit positive cells. The CPCs were cultured on Ham's F12 supplemented with FBS, LIF, bFGF, L-Glutamine and antibiotics. Single cell cloning was performed by limiting dilution to obtain CPCs with >90% expression of cKit and the cardiac transcription factors nkx2-5 and gata-4. CPCs were cultured in self assembling hydrogels of various concentrations (1-3% w/v) with either empty, scrambled or JAG-1 peptide in 1:10 ratio for 48 hrs in Millicell Insets. qRT-PCRs were performed using Power SYBR green on the StepOne Plus Applied Biosystems machine. The Young's modulus of the hydrogels was determined using an MFP-3DBIO atomic force microscope (Asylum Research; Santa Barbara, Calif.), with a 4.74 μm diameter bead tippedsilicon nitride cantilever.
CPCs were clonally expanded and characterized to be >96% Notch1+, >90% c-Kit+, nkx2-5+(nk2 homeobox 5) and gata4+(GATA binding protein 4). CPCs were cultured in 1 or 2% (w/v) SAP hydrogels (1R, 1RS, 1RJ or 2R, 2RS, 2RJ) for 48 h.

Notch1 [3] = test: Notch1 activation in CHO cells with Notch1-responsive YFP expression, 3D culture in hydrogels; assay type: cell-based; conditions: 48 h
Experimental: (§2) CHO cells with Notch1-responsive YFP expression were cultured in media containing 20 or 40 μm R, RS or RJ for 48 h. […] These cells were also cultured in 3D in 1-3% w/v hydrogels composed of R, RS or RJ for 48 h.

[4] = system: embryoid bodies (EBs) from mouse embryonic stem cells; test: qPCR gene expression of mouse embryoid bodies cultured in 1% hydrogels; assay type: cell-based; conditions: mouse EBs in 1% hydrogels
Experimental: To determine if gene expression changes in response to hydrogel-mediated Notch1 activation were conserved between stem/progenitor cells, day 2 embryoid bodies (EBs) from mouse embryonic stem cells were cultured in low concentration (1%) hydrogels for 48 h.

[5] = Atomic force microscopy measurement of Young's modulus of hydrogels; assay type: physicochemical; conditions: in comparison with unmodified hydrogels at both 1 and 2% w/v
Experimental: (§3) Peptides have been created containing a ligand for Notch-1 activation that self assembles into a hydrogel. For determination of swelling ratio, the hydrogels were created in a […] total volume and allowed to swell in 295 mM sucrose solution. After 24 h, the wet weight of the gels was measured. The gels were then lyophilized and the dry weight noted. Swelling ratio was calculated as the (wet weight−dry weight)/wet weight. […] The average Young's modulus for 1% and 2% hydrogels was 500 Pa and 1800 Pa respectively (FIG. 1A).
as §1, with “CPCs were cultured in self assembling hydrogels of various concentrations (1-3% w/v) with either empty, scrambled or JAG-1 peptide in 1:10 ratio for 48 hrs in Millicell Insets. qRT-PCRs were performed using Power SYBR green on the StepOne Plus Applied Biosystems machine.” left out

[6] = Swelling ratio of hydrogels; assay type: physicochemical; conditions: n=3
Experimental: as §3

Notch1 [7] = test: Notch1 activation in CHO cells with Notch1-responsive YFP expression, 2D culture with peptide in media; assay type: cell-based; conditions: media containing peptide at 40 μm, 48 h
Experimental: as §2

Substance | self-assembly into a hydrogel when mixed with peptide hydrogel R [1] | self-assemble at physiologic pH and osmolarity [1] | Self-Assembly [1] | effect of addition of peptide to the SAP on Young's modulus [5] | effect of peptide addition on network structure (swelling ratio) [6] | further results
CDDYYYGFGCNKFCRPR [JAG-1] | self-assembles into a hydrogel | do not self-assemble |  |  |  | 
H2N-RARADADARARADADA-OH (H-RARADADARARADADA-OH) [unmodified/empty control] |  |  | yes |  |  | 
RARADADARARADADA(G7)(JAG-1) (RARADADARARADADAGGGGGGGCDDYYYGFGCNKFCRPR) [RJ] |  |  | no | did not alter the Young's modulus | no significant effect | Notch1 signaling in CPCs ([2]; 1% hydrogels): activates Notch1 signaling; Notch1 signaling in CPCs ([2]; 2% hydrogels): activates Notch1 signaling; endothelial and smooth muscle gene expression ([2]; CPCs in 1% hydrogels): promotes; expression of Hey1 (Notch1 downstream target) ([2]; CPCs in 1 or 2% hydrogels, qPCR): increased expression; cardiac gene expression ([2]; CPCs in 2% hydrogels): promotes; Notch1 activation (YFP expression) (Notch1 [3]; 2% w/v hydrogel): maximum Notch1 activation; also recorded: highest levels of Notch1 activation; Notch1 activation (YFP expression) (Notch1 [3]; further increase to 3% w/v hydrogel): did not promote Notch1 activation; endothelial and smooth muscle gene expression [4]: promotes; Notch1 activation (YFP expression) (Notch1 [7]): significant increase
RARADADARARADADA(G7)(SCR-1) (RARADADARARADADAGGGGGGGRCGPDCFDNYGRYKYCF) [RS, reference compound] |  |  | no | did not alter the Young's modulus | no significant effect | 
RCGPDCFDNYGRYKYCF [SCR-1] | self-assembles into a hydrogel | do not self-assemble |  |  |  | 
